Paper PMC7782203

Target: recombinant human protective protein/cathepsin A (rhPPCA), 54-kDa precursor form (human)
Assay: SEC

- stoichiometry N: 2
Substance: recombinant human protective protein/cathepsin A (rhPPCA), 54-kDa precursor form (enzyme)
